Data: patent US20250152746A1, “BASE EDITING OF ANGPTL3 AND METHODS OF USING SAME FOR TREATMENT OF DISEASE” (Verve Therapeutics, Inc., priority 2020, published 2025)

B1: GA143: ANGPTL3 gRNA; protospacer TTAATTCAACATCGAATAGA (SEQ ID NO: 141) (nucleic acid)
guide: UUAATTCAACATCGAATAGAGTTTTAGAGCTAGAAATAGCAAGTTAAAATAAGGCTAGTCCGTTATCAACTTGAAAAAGTGGCACCGAGTCGGTGCTTTT
modifications: 2'-O-methyl at 1, 2, other sugars, backbone and T or U not given here; further chemistry not fully specified
B2: GA107: ANGPTL3 gRNA; protospacer AGCCAATGGCCTCCTTCAGT (SEQ ID NO: 105) (nucleic acid)
guide: AGCCAATGGCCTCCTTCAGTGTTTTAGAGCTAGAAATAGCAAGTTAAAATAAGGCTAGTCCGTTATCAACTTGAAAAAGTGGCACCGAGTCGGTGCTTTT
modifications: 2'-O-methyl at 1, 2, other sugars and backbone not given here; further chemistry not fully specified
B3: GA148: ANGPTL3 gRNA; protospacer ACAAAACTTCAATGAAACGT (SEQ ID NO: 146) (nucleic acid)
guide: ACAAAACTTCAATGAAACGTGTTTTAGAGCTAGAAATAGCAAGTTAAAATAAGGCTAGTCCGTTATCAACTTGAAAAAGTGGCACCGAGTCGGTGCTTTT
modifications: 2'-O-methyl at 1, 2, other sugars and backbone not given here; further chemistry not fully specified
B4: GA145: ANGPTL3 gRNA; protospacer CATTATATTCAGGTAGTCCA (SEQ ID NO: 143) (nucleic acid)
guide: CATTATATTCAGGTAGTCCAGTTTTAGAGCTAGAAATAGCAAGTTAAAATAAGGCTAGTCCGTTATCAACTTGAAAAAGTGGCACCGAGTCGGTGCTTTT
modifications: 2'-O-methyl at 1, 2, other sugars and backbone not given here; further chemistry not fully specified
B5: GA151: ANGPTL3 gRNA; protospacer GAGAACTACAAATATGGTTT (SEQ ID NO: 149) (nucleic acid)
guide: GAGAACTACAAATATGGTTTGTTTTAGAGCTAGAAATAGCAAGTTAAAATAAGGCTAGTCCGTTATCAACTTGAAAAAGTGGCACCGAGTCGGTGCTTTT
modifications: 2'-O-methyl at 1, 2, other sugars and backbone not given here; further chemistry not fully specified
B6: GA072: PCSK9 gRNA for ABE8.8 splice site editing, Human/Cyno (nucleic acid)
guide: GGTGGCTCACCAGCTCCAGCGTTTTAGAGCTAGAAATAGCAAGTTAAAATAAGGCTAGTCCGTTATCAACTTGAAAAAGTGGCACCGAGTCGGTGCTTTT
modifications: 2'-O-methyl at 1, 2, other sugars, backbone and T or U not given here; further chemistry not fully specified
notes: PCSK9 gRNA for ABE8.8 splice site editing, Human/Cyno
B7: GA073: PCSK9 gRNA; protospacer GCTTACCTGTCTGTGGAAGC (SEQ ID NO: 67), splice donor of intron 4 (nucleic acid)
guide: GCTTACCTGTCTGTGGAAGCGTTTTAGAGCTAGAAATAGCAAGTTAAAATAAGGCTAGTCCGTTATCAACTTGAAAAAGTGGCACCGAGTCGGTGCTTTT
modifications: listed as RNA; modified_base 1: mod_base = OTHER; note = 2'-O-Methyl-guanosine phosphorothioate; modified_base 2: mod_base = OTHER; note = 2'-O-Methyl-cytidine phosphorothioate; modified_b
B8: GA074: PCSK9 gRNA; protospacer TGCTTACCTGTCTGTGGAAG (SEQ ID NO: 68), splice donor of intron 4 (nucleic acid)
guide: TGCTTACCTGTCTGTGGAAGGTTTTAGAGCTAGAAATAGCAAGTTAAAATAAGGCTAGTCCGTTATCAACTTGAAAAAGTGGCACCGAGTCGGTGCTTTT
modifications: listed as RNA; modified_base 1: mod_base = OTHER; note = 2'-O-Methyl-uridine phosphorothioate; modified_base 2: mod_base = OTHER; note = 2'-O-Methyl-guanosine phosphorothioate; modified_ba

system: ANGPTL3 gene; experiment: ANGPTL3 gRNA/SpCas9 editing in primary cynomolgus hepatocytes (Table 3); type: cell-based, cynomolgus monkey; conditions: not given
Method: (§1) In set of experiments, PCSK9 gRNAs were co-transfected with an equivalent amount (1:1 ratio by weight) of in vitro transcribed commercially available SpCas9 mRNA MS002 purchased from TriLink Biotechnologies into primary human hepatocytes at 2500, 500, or 100 ng/RNA/mL and processed as described in detailed methods. Extracted genomic DNA was analyzed for gene editing at the target site with next-generation sequencing of PCR amplicons generated around the target sites. Samples were prepared using the Nextera XT DNA library preparation kit (Illumina) according to the manufacturer's protocol. Briefly, two rounds of PCR were performed first to amplify the region of interest and second to add DNA sequences required for next generation sequencing and sample identification to the initial product. The final amplicon was sequenced on the Illumina MiSeq instrument according to the manufacturer's protocol. A wide range of editing activities (Table 2) were observed. In a second set of experiments, ANGPTL3 gRNAs were co-transfected with an equivalent amount of in vitro transcribed SpCas9 mRNA (1:1 ratio by weight) into primary human hepatocytes and processed and analyzed similarly (Table 3).
(§2) Plating, culturing, and transfection of primary hepatocytes. Primary human liver hepatocytes (PHH) and primary cynomolgus liver hepatocytes (PCH) from BioIVT were cultured per the manufacturer's protocol. Briefly, primary human hepatocytes and primary cyno hepatocytes were obtained as frozen aliquots from BioIVT. Four lots of primary human hepatocytes, each derived from a de-identified individual donor, were used for the experiments: STL (main donor) was used for all experiments, including screening experiments and off-target experiments; HLY, JLP, and TLY were used for off-target experiments. The HFG lot of primary cyno hepatocytes were used for experiments. Following the manufacturer's instructions, cells were thawed and rinsed prior to plating in 24-well plates that had been coated with bovine collagen overnight, with a density of approximate 350,000 cells/well in INVITROGRO hepatocyte medium supplemented with TORPEDO antibiotic mix (BioIVT). The cells were thawed and resuspended in hepatocyte thawing medium followed by centrifugation at 100 g for 10 min at 4° C. The supernatant was discarded, and the pelleted cells resuspended in hepatocyte plating medium. Each vial contains approximately 5 million cells that were used for plating one 24-well plate. Plated cells were allowed to settle and adhere for 4-6 h in a tissue culture incubator at 37° C. under 5% CO2 atmosphere. After incubation, cells were checked for monolayer formation. The incubating media were then replaced with fresh hepatocyte maintenance media (complete INVITROGRO medium obtained from BioIVT, the cell line provider). The cells thus became ready for transfection. Each of the gRNAs were co-transfected with an equivalent amount of in vitro transcribed ABE8.8 mRNA (1:1 ratio by molecular weight) into primary human hepatocytes via MessengerMax reagent (Lipofectamine), using various dilutions to assess for editing activity at different concentrations of test article. MessengerMAX from Thermo Fisher is used for transfection. Solution A: desired amount of guide RNA is mixed with 1:1 wt ratio of mRNA in OptiMEM. Solution B: MessengerMAX in OptiMEM. After mixing solutions A and B, the mixture was incubated at room temperature for 20 min. 60 μL of the incubated solution was added dropwise to each cell wells. For protospacer sequences that were a perfect match to the corresponding cynomolgous monkey PCSK9 or ANGPTL3 gene sequence, each gRNA was also co-transfected with an equivalent amount of ABE8.8 mRNA (1:1 ratio by molecular weight) into primary cynomolgous hepatocytes, and followed the same transfection protocol. The cells were then allowed to remain at 37° C. for 3 days. […]

Molecule | Cyno Primary Hepatocyte Editing % 100 ng/mL [%] | Cyno Primary Hepatocyte Editing % 500 ng/ml [%]
B1 | 14.84 | 21.16
B2 | 32.58 | 
B3 | 28.57 | 69.75
B4 | 18.77 | 30.34
B5 | 11.32 | 38.91

system: ANGPTL3 gene; experiment: ANGPTL3 gRNA/SpCas9 editing in primary human hepatocytes (Table 3); type: cell-based; conditions: not given
Method: as §1, §2

Molecule | Human Primary Hepatocyte Editing % 100 ng/ml [%] | Human Primary Hepatocyte Editing % 500 ng/mL [%]
B1 | 9.30 | 19.36
B2 | 3.72 | 5.09
B3 | 12.01 | 31.67
B4 | 12.55 | 26.33
B5 | 10.56 | 31.88

system: PCSK9 gene splice site; experiment: not given; type: cell-based, cynomolgus monkey; conditions: not given
Method: (§3) PCSK9 gRNAs were co-transfected with an equivalent amount of in vitro transcribed ABE8.8 mRNA MA002 (1:1 ratio by weight) into primary hepatocytes and processed as described in detailed methods. In one set of experiments, extracted genomic DNA was analyzed for base editing of the target splice site with next-generation sequencing of PCR amplicons generated around the target sites. Samples were prepared using the Nextera XT DNA library preparation kit (Illumina) according to the manufacturer's protocol. Briefly, two rounds of PCR were performed first to amplify the region of interest and second to add DNA sequences required for next generation sequencing and sample identification to the initial product. The final amplicon was sequenced on the Illumina MiSeq instrument according to the manufacturer's protocol.
(§4) Similarly, three gRNAs (GA098, GA099, GA100) were synthesized matching the 5′-[…]-3′ (SEQ ID NO: 15) (GA091) human protospacer sequence, as well as four gRNAs (GA067/GA101, GA102, GA103, GA347) matching the 5′-[…]-3′ (SEQ ID NO: 14) (GA067) cynomolgus protospacer sequence, but with more extensive chemical modifications of various kinds (Table 1). GA066 and GA095 contain the same chemical composition and modification pattern, as do GA067 and GA101 with one another. […] Each of the gRNAs described in Table 8, with an equivalent amount of in vitro transcribed ABE8.8 mRNA MA002 (1:1 ratio by weight), were co-transfected into primary human hepatocytes and primary cynomolgus hepatocytes via MessengerMax reagent, using various dilutions to assess for editing activity at different concentrations of test article. Three days after transfection, genomic DNA was harvested from the hepatocytes, and then assessed for base editing of the target splice site with next-generation sequencing.
(§5) Modifications and/or truncations to either the spacer or tracr portion of the gRNA was assessed by alteration of the GA066 spacer (5′-[…]-3′ (SEQ ID NO: 13)) (Table 12). […] Each of the gRNAs with an equivalent amount of in vitro transcribed ABE8.8 mRNA (1:1 ratio by weight) were co-transfected into primary human hepatocytes and primary cynomolgus hepatocytes and processed as described in detailed methods.
Lipid nanoparticles containing ABE8.8 mRNA and a gRNA matching the human/cynomolgus 5′-[…]-3′ (SEQ ID NO: 13) sequence (GA066) that targets the splice donor at the 5′ end of PCSK9 intron 1 were formulated at a 1:1 ratio by weight. The LNPs were administered to primary human hepatocytes and primary cynomolgus hepatocytes, using various dilutions to assess for editing activity at different concentrations of test article. LNP containing Cas9 mRNA and a gRNA matching a protospacer sequence in another gene, ANGPTL3, as a positive control was used for these experiments.
Plating, culturing, and transfection of primary hepatocytes. Primary human liver hepatocytes (PHH) and primary cynomolgus liver hepatocytes (PCH) from BioIVT were cultured per the manufacturer's protocol. Briefly, primary human hepatocytes and primary cyno hepatocytes were obtained as frozen aliquots from BioIVT.

Molecule | Cynomolgous Primary Hepatocytes-splice site editing % 1250 ng/mL [%] | Cynomolgous Primary Hepatocytes-splice site editing % 2500 ng/mL [%] | Cynomolgous Primary Hepatocytes-splice site editing % 5000 ng/mL [%]
B6 | 2.3 | 1.7 | 2.2
B7 | 24.7 | 23.2 | 29.2
B8 | 17.5 | 20.1 | 18.7

system: PCSK9 gene splice site; experiment: not given; type: cell-based, human; conditions: not given; remark: another data set of the same source
Method: as §3, §4
as §5, with “methods. […]” for “methods.”

Molecule | Human Primary Hepatocytes-splice site editing % 1250 ng/mL [%] | Human Primary Hepatocytes-splice site editing % 2500 ng/mL [%] | Human Primary Hepatocytes-splice site editing % 5000 ng/mL [%]
B6 | 1.5 | 2.2 | 2.5
B7 | 11.2 | 17.5 | 25.4
B8 | 11.6 | 18.8 | 23.8

same assay, conditions: ABE8.8 mRNA MA002

Molecule | editing activities, ranking of guides
B7 | performing the best
B8 | performing the best
